Measured values: publication PMC4178060, “Recombinant p35 from Bacteria Can Form Interleukin (IL-)12, but Not IL-35” (PLoS ONE, 2014)

Columns and labels:
[1] = biological target: T1, p40_(C197A) (murine p40, flag-tagged) (mouse) (UniProt P43432)
T1 sequence: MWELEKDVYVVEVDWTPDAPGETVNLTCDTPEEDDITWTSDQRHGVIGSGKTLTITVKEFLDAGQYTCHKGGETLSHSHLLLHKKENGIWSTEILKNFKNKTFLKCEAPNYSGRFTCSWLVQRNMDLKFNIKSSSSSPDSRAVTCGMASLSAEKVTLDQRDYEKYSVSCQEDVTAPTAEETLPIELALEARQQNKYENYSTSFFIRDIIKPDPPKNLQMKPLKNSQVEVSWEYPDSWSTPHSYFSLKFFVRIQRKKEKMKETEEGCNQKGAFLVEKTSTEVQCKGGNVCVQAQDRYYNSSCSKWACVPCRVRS

[2] = biological target: the molecule itself; assay: non-reducing SDS-PAGE with Western blot; 20 µl conditioned supernatant of transiently transfected HEK293 cells separated by SDS-PAGE under non-reducing conditions; flag-specific antibody; disulfide-linked dimer

Binder | biological activity of IL-12 reconstituted with bacterially expressed p35, compared to IL-12 (Ba/F3-gp130-IL-12Rβ1-IL-12Rβ2 cells) (fold less active) [1] | stoichiometry N [2]
recombinant murine p35 from bacteria (p35bac) (natural protein) RVIPVSGPARCLSQSRNLLKTTDDMVKTAREKLKHYSCTAEDIDHEDITRDQTSTLKTCLPLELHKNESCLATRETSSTTRGSCLPPQKTSLMMTLCLGSIYEDLKMYQTEFQAINAALQNHNHQQIILDKGMLVAIDELMQSLNHNGETLRQKPPVGEADPYRVKMKLCILLHAFSTRVVTINRVMGYLSSA | > 100 | –
p40 wildtype (murine p40, flag-tagged) (natural protein, mouse, UniProt P43432 23-335, looked up, murine p40 (IL-12 subunit beta); The supernatant holds monomer and disulfide-linked dimer; also called mp40; IL-12p40; source: HEK293, transiently transfected, conditioned supernatant) MWELEKDVYVVEVDWTPDAPGETVNLTCDTPEEDDITWTSDQRHGVIGSGKTLTITVKEFLDAGQYTCHKGGETLSHSHLLLHKKENGIWSTEILKNFKNKTFLKCEAPNYSGRFTCSWLVQRNMDLKFNIKSSSSSPDSRAVTCGMASLSAEKVTLDQRDYEKYSVSCQEDVTCPTAEETLPIELALEARQQNKYENYSTSFFIRDIIKPDPPKNLQMKPLKNSQVEVSWEYPDSWSTPHSYFSLKFFVRIQRKKEKMKETEEGCNQKGAFLVEKTSTEVQCKGGNVCVQAQDRYYNSSCSKWACVPCRVRS | – | 2
